Assay results reported in paper PMC4244909.

Biological target: microtubules (polymers of α/β-tubulin) of the co-sedimentation and negative-stain EM experiments
Test: co-sedimentation

Chain of microtubules (polymers of α/β-tubulin) of the co-sedimentation and negative-stain EM experiments (P68363 whole entry, chain 1 of 2): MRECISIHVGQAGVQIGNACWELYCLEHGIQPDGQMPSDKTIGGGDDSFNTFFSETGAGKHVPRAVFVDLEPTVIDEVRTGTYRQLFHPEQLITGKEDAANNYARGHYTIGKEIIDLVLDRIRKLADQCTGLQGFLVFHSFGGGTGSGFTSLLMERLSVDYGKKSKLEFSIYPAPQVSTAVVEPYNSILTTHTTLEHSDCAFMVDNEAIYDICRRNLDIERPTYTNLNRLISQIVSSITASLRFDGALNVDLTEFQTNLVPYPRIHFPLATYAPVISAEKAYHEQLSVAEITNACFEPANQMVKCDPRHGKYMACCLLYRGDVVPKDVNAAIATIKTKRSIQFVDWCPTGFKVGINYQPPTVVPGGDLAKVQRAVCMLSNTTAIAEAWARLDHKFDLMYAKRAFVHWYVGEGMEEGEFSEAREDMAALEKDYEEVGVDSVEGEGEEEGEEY
Chain of microtubules (polymers of α/β-tubulin) of the co-sedimentation and negative-stain EM experiments (A8K068 whole entry, chain 2 of 2, further chain): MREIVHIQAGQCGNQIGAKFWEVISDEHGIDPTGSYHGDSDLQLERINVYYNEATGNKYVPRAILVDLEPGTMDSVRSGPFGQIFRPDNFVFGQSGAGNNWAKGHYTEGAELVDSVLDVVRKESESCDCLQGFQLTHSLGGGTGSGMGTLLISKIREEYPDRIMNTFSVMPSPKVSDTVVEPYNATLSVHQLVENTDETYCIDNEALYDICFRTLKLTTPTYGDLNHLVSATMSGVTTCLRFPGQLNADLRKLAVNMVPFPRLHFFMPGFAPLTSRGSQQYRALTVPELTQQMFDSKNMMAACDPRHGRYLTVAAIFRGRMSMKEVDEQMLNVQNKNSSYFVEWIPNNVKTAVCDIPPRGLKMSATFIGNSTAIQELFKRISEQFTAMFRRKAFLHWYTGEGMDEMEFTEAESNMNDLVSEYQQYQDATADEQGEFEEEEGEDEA

B1: Hice1-MTBR (Hice1 microtubule-binding region, a.a. 1–141), Q9BT25 1-141 (domain or fragment)
chain: MADSSGRGAGKPATGPTNSSSAKKKDKRVQGGRVIESRYLQYEKKTTQKAPAGDGSQTRGKMSEGGRKSSLLQKSKADSSGVGKGDLQSTLLEGHGTAPPDLDLSAINDKSIVKKTPQLAKTISKKPESTSFSAPRKKSPD
Q: How did the Kd turn out when B1 was run?
A: 9.33 µM
